# Measured values reported in paper PMC3889140 (Bioorganic & medicinal chemistry letters, 2013).
# Entries after “also recorded” stand apart in the source; their conditions may differ. Positions of bridges follow the written chain, without caps; N, C: chain ends. Non-standard residues stand in square brackets, D forms with d. Residues, ends and D or L forms follow the SMILES beside them.
# Tests used:
# [1] = in vivo; parameters: species or system C57 mice; details: C57, mouse, iv, total radioactivity; for tissue uptake dose at 2 h: percent injected dose
# [2] = system: B16/F1 melanoma cells; assay: Cellular internalization in B16/F1 melanoma cells; type: cell-based, murine
# [3] = system: B16/F1 melanoma-bearing C57 mouse; assay: SPECT/CT melanoma imaging; type: in vivo; details: flank B16/F1 melanoma, 2 h post-injection, about 7.4 MBq, one mouse
# [4] = 0.037 MBq, Kidneys (renal) uptake
# [5] = 0.037 MBq, Uptake ratio Tumor/Lung
structure (smiles),measurement,setting,value
"CC(C)[C@H](NC(=O)[C@@H]1CCCN1C(=O)[C@H](CCCNC(=N)N)NC(=O)[C@H](CS)NC(=O)[C@H](Cc1c[nH]c2ccccc12)NC(=O)[C@H](CCCNC(=N)N)NC(=O)[C@@H](Cc1ccccc1)NC(=O)[C@H](Cc1c[nH]cn1)NC(=O)[C@H](CCC(=O)O)NC(=O)[C@H](CS)NC(=O)[C@H](CS)NC(=O)[C@H](CCCNC(=N)N)NC(=O)[C@@H]1CC(=O)N[C@@H](CCCNC(=N)N)C(=O)N[C@@H](C)C(=O)N[C@@H](CC(=O)O)C(=O)N[C@H](Cc2ccc(O)cc2)C(=O)N1)C(N)=O [^99mTc-RAD-Arg-(Arg^11)CCMSH, metal not drawn] (RAD[dY]DRCCEH[dF]RWCRPV-NH2; lactam N-5; C-terminus assumed)",tissue uptake at 0.5 h,"[1]; 0.037 MBq, Blood uptake",3.43 ± 0.37 %ID/g
same,tissue uptake at 2 h,"[1]; 0.037 MBq, Blood uptake",0.59 ± 0.17 %ID/g
same,tissue uptake at 4 h,"[1]; 0.037 MBq, Blood uptake",0.1 ± 0.06 %ID/g
same,tissue uptake at 24 h,"[1]; 0.037 MBq, Blood uptake",0.04 ± 0.01 %ID/g
same,tissue uptake at 0.5 h,"[1]; 0.037 MBq, Bone uptake",1.97 ± 0.22 %ID/g
same,tissue uptake at 2 h,"[1]; 0.037 MBq, Bone uptake",0.64 ± 0.25 %ID/g
same,tissue uptake at 4 h,"[1]; 0.037 MBq, Bone uptake",0.34 ± 0.13 %ID/g
same,tissue uptake at 24 h,"[1]; 0.037 MBq, Bone uptake",0.14 ± 0.04 %ID/g
same,tissue uptake at 0.5 h,"[1]; 0.037 MBq, Brain uptake",0.16 ± 0.04 %ID/g
same,tissue uptake at 2 h,"[1]; 0.037 MBq, Brain uptake",0.04 ± 0.02 %ID/g
same,tissue uptake at 4 h,"[1]; 0.037 MBq, Brain uptake",0.02 ± 0.02 %ID/g
same,tissue uptake at 24 h,"[1]; 0.037 MBq, Brain uptake",0.02 %ID/g
same,tissue uptake at 0.5 h,"[1]; 0.037 MBq, Heart uptake",1.71 ± 0.58 %ID/g
same,tissue uptake at 2 h,"[1]; 0.037 MBq, Heart uptake",0.5 ± 0.14 %ID/g
same,tissue uptake at 4 h,"[1]; 0.037 MBq, Heart uptake",0.21 ± 0.03 %ID/g
same,tissue uptake at 24 h,"[1]; 0.037 MBq, Heart uptake",0.1 ± 0.02 %ID/g
same,tissue uptake at 0.5 h,[1]; [4],41.2 ± 4.48 %ID/g
same,tissue uptake at 2 h,[1]; [4],35.6 ± 9.61 %ID/g
same,tissue uptake at 4 h,[1]; [4],26.5 ± 0.62 %ID/g
same,tissue uptake at 24 h,[1]; [4],12 ± 2.29 %ID/g
same,tissue uptake at 0.5 h,"[1]; 0.037 MBq, Liver uptake",3.07 ± 0.08 %ID/g
same,tissue uptake at 2 h,"[1]; 0.037 MBq, Liver uptake",1.88 ± 0.35 %ID/g
same,tissue uptake at 4 h,"[1]; 0.037 MBq, Liver uptake",1.47 ± 0.11 %ID/g
same,tissue uptake at 24 h,"[1]; 0.037 MBq, Liver uptake",1.18 ± 0.28 %ID/g
same,tissue uptake at 0.5 h,"[1]; 0.037 MBq, Lung uptake",5.42 ± 0.7 %ID/g
same,tissue uptake at 2 h,"[1]; 0.037 MBq, Lung uptake",1.15 ± 0.22 %ID/g
same,tissue uptake at 4 h,"[1]; 0.037 MBq, Lung uptake",0.4 ± 0.16 %ID/g
same,tissue uptake at 24 h,"[1]; 0.037 MBq, Lung uptake",0.16 ± 0.03 %ID/g
same,tissue uptake at 0.5 h,"[1]; 0.037 MBq, Muscle uptake",0.8 ± 0.46 %ID/g
same,tissue uptake at 2 h,"[1]; 0.037 MBq, Muscle uptake",0.2 ± 0.15 %ID/g
same,tissue uptake at 4 h,"[1]; 0.037 MBq, Muscle uptake",0.15 ± 0.1 %ID/g
same,tissue uptake at 24 h,"[1]; 0.037 MBq, Muscle uptake",0.03 ± 0.02 %ID/g
same,tissue uptake at 0.5 h,"[1]; 0.037 MBq, Pancreas uptake",1.06 ± 0.33 %ID/g
same,tissue uptake at 2 h,"[1]; 0.037 MBq, Pancreas uptake",0.2 ± 0.11 %ID/g
same,tissue uptake at 4 h,"[1]; 0.037 MBq, Pancreas uptake",0.1 ± 0.05 %ID/g
same,tissue uptake at 24 h,"[1]; 0.037 MBq, Pancreas uptake",0.1 ± 0.05 %ID/g
same,tissue uptake at 0.5 h,"[1]; 0.037 MBq, Skin uptake",5.43 ± 0.41 %ID/g
same,tissue uptake at 2 h,"[1]; 0.037 MBq, Skin uptake",1.1 ± 0.39 %ID/g
same,tissue uptake at 4 h,"[1]; 0.037 MBq, Skin uptake",0.53 ± 0.09 %ID/g
same,tissue uptake at 24 h,"[1]; 0.037 MBq, Skin uptake",0.24 ± 0.1 %ID/g
same,tissue uptake at 0.5 h,"[1]; 0.037 MBq, Spleen uptake",2.12 ± 0.57 %ID/g
same,tissue uptake at 2 h,"[1]; 0.037 MBq, Spleen uptake",0.61 ± 0.31 %ID/g
same,tissue uptake at 4 h,"[1]; 0.037 MBq, Spleen uptake",0.25 ± 0.12 %ID/g
same,tissue uptake at 24 h,"[1]; 0.037 MBq, Spleen uptake",0.41 ± 0.14 %ID/g
same,tissue uptake at 0.5 h,"[1]; 0.037 MBq, Stomach uptake",3.13 ± 0.62 %ID/g
same,tissue uptake at 2 h,"[1]; 0.037 MBq, Stomach uptake",1.63 ± 0.43 %ID/g
same,tissue uptake at 4 h,"[1]; 0.037 MBq, Stomach uptake",1.41 ± 0.74 %ID/g
same,tissue uptake at 24 h,"[1]; 0.037 MBq, Stomach uptake",0.28 ± 0.09 %ID/g
same,tissue uptake at 0.5 h,"[1]; 0.037 MBq, Tumor uptake",8.46 ± 3.7 %ID/g
same,tissue uptake at 2 h,"[1]; 0.037 MBq, Tumor uptake",18 ± 4.96 %ID/g
same,tissue uptake at 4 h,"[1]; 0.037 MBq, Tumor uptake",14.1 ± 2.9 %ID/g
same,tissue uptake at 24 h,"[1]; 0.037 MBq, Tumor uptake",10.2 ± 2.66 %ID/g
same,tissue to tissue ratio at 0.5 h,[1]; [5],1.56
same,tissue to tissue ratio at 2 h,[1]; [5],15.6
same,tissue to tissue ratio at 4 h,[1]; [5],35.2
same,tissue to tissue ratio at 24 h,[1]; [5],63.5
same,tissue uptake dose at 2 h,[1]; Bladder,77.8 ± 2.34 %ID
same,tissue uptake dose at 2 h,[1]; Intestines,2.5 ± 0.16 %ID
same,tissue to tissue ratio at 2 h,[1]; Uptake ratio Tumor/Blood,2.41
same,tissue to tissue ratio at 2 h,[1]; Uptake ratio Tumor/Kidneys,0.09
same,tissue to tissue ratio at 2 h,[1]; Uptake ratio Tumor/Liver,1.12
same,tissue to tissue ratio at 2 h,[1]; Uptake ratio Tumor/Lung,1.73
same,tissue to tissue ratio at 2 h,[1]; Uptake ratio Tumor/Muscle,10.4
same,activity internalized,[2]; 20 min post incubation,Approximately 77.81 ± 4.46%
same,activity internalized,[2]; after 2 h incubation,81.26 ± 4.81%
same,melanoma imaging by SPECT/CT,[3],visualized clearly; also recorded: clearly imaged
